Five molecules from patent publication US20250243261A1 (CZ BIOHUB SF, published 2025) can be followed below.

Like-named read-outs stand apart in the source and are kept apart here.

The target in assay [1] is T1, Ebola GP ectodomain (Mayinga, Zaire, 1976) with the mucin-like domain deleted (Zaire ebolavirus (Mayinga, 1976), UniProt Q05320 33-650).
Assay [2] addresses T2, full-length Ebola GP on pseudotyped lentivirus (Zaire ebolavirus, UniProt Q05320 33-676).
T2 sequence: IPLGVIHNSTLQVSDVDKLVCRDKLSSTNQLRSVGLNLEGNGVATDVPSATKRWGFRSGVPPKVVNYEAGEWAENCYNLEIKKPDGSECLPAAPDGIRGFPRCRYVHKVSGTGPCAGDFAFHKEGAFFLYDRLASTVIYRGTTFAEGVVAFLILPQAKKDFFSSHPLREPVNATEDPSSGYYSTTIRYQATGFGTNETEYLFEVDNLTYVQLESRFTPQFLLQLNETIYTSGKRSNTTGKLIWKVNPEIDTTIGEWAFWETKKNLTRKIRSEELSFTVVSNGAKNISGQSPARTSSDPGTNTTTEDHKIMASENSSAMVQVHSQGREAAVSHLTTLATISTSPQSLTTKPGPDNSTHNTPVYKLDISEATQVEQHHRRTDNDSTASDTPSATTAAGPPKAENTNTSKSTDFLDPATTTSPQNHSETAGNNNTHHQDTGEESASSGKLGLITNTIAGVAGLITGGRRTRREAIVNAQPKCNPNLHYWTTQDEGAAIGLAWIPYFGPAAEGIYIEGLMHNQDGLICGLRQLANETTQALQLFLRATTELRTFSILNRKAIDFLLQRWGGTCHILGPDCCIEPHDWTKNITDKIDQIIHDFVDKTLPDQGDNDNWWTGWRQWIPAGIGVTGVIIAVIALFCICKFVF
Briefly: cell-based or functional assay.

The target in assay [3] is T1, Ebola GP ectodomain (Mayinga, Zaire, …). Kind of assay: BLI, Fab. A general note: In BLI a coated tip is dipped into the sample, and binding shifts an interference pattern.
Assay [4] has the same target. The source holds these as a separate data set.
For assay [5] the target is unchanged. This is another data set of the same source.
Assay [6] shares this target. Briefly: BLI, IgG.
Assay [7] has the same target. Kind of assay: BLI, Fab. The source holds these as a separate data set.

B1: mAb114 VH D42G-A68T-S79Y / VL V43A IgG (antibody, V domains shown)
VH: EVQLVESGGGLIQPGGSLRLSCAASGFALRMYDMHWVRQTIGKRLEWVSAVGPSGDTYYADSVKGRFTVSRENAKNSLYLQMNSLTAGDTAIYYCVRSDRGVAGLFDSWGQGILVTVSS
VL: DIQMTQSPSSLSASVGDRITITCRASQAFDNYVAWYQQRPGKAPKLLISAASALHAGVPSRFSGSGSGTHFTLTISSLQPEDVATYYCQNYNSAPLTFGGGTKVEIK
For the molecule B1, the Kd – broadly, the concentration at which binding is half-saturated – in assay [1] was less than 0.001 nM. In addition, the “Ebola GP pseudotyped lentivirus IC50” value in assay [2] amounted to 0.96 nM.

B2: mAb114 WT Fab (Fab, V domains shown)
VH: EVQLVESGGGLIQPGGSLRLSCAASGFALRMYDMHWVRQTIDKRLEWVSAVGPSGDTYYADSVKGRFAVSRENAKNSLSLQMNSLTAGDTAIYYCVRSDRGVAGLFDSWGQGILVTVSS
VL: DIQMTQSPSSLSASVGDRITITCRASQAFDNYVAWYQQRPGKVPKLLISAASALHAGVPSRFSGSGSGTHFTLTISSLQPEDVATYYCQNYNSAPLTFGGGTKVEIK
In assay [3], B2 came in with a Kd of 0.17 nM.

B3: mAb114 VH D42G-A68T-S79Y / VL V43A Fab (Fab, V domains shown)
VH: EVQLVESGGGLIQPGGSLRLSCAASGFALRMYDMHWVRQTIGKRLEWVSAVGPSGDTYYADSVKGRFTVSRENAKNSLYLQMNSLTAGDTAIYYCVRSDRGVAGLFDSWGQGILVTVSS
VL: DIQMTQSPSSLSASVGDRITITCRASQAFDNYVAWYQQRPGKAPKLLISAASALHAGVPSRFSGSGSGTHFTLTISSLQPEDVATYYCQNYNSAPLTFGGGTKVEIK
Consider B3, for which the “fold improvement in Kd vs wildtype” value in assay [4] was 3 fold. Moreover, the affinity in assay [5], expressed as Kd, was 0.06 nM.

B4: mAb114 UCA WT IgG (antibody, V domains shown)
VH: EVQLVESGGGLVQPGGSLRLSCAASGFTFSSYDMHWVRQATGKGLEWVSAIGTAGDTYYPGSVKGRFTISRENAKNSLYLQMNSLRAGDTAVYYCVRSDRGVAGLFDSWGQGTLVTVSS
VL: DIQMTQSPSSLSASVGDRVTITCRASQGISNYLAWYQQKPGKVPKLLIYAASTLQSGVPSRFSGSGSGTDFTLTISSLQPEDVATYYCQKYNSAPLTFGGGTKVEIK
Molecule B4 came in with a dissociation constant Kd in assay [6] of 400 nM.

B5: mAb114 UCA WT Fab (Fab, V domains shown)
VH: EVQLVESGGGLVQPGGSLRLSCAASGFTFSSYDMHWVRQATGKGLEWVSAIGTAGDTYYPGSVKGRFTISRENAKNSLYLQMNSLRAGDTAVYYCVRSDRGVAGLFDSWGQGTLVTVSS
VL: DIQMTQSPSSLSASVGDRVTITCRASQGISNYLAWYQQKPGKVPKLLIYAASTLQSGVPSRFSGSGSGTDFTLTISSLQPEDVATYYCQKYNSAPLTFGGGTKVEIK
As to B5, the Kd in assay [7] is 75000 nM. In other words, the double-digit micromolar range.
